Columns and labels:
[1] = target: T1, His-tagged SPIN1 (49–262) (mouse, UniProt Q61142 49-262); test: SEC; SPIN1–SPOCD1 fragment 1b complex purified on an S200 increase column before the nucleosome pull-down; details: both partners purified
T1 construct: mouse SPIN1 (Q61142), amino acids 49–262; 'Purified as above' would include cleavage of the tag, yet the protein is called His-tagged and detected by anti-His; source: E. coli BL21 (DE3), purified

[2] = target: T2, mouse SPIN1 (amino acids 49–262), recombinant, His tag cleaved (mouse, UniProt Q61142 49-262); test: pull-down; co-precipitation of recombinant proteins, Coomassie gel, n = 3; details: both partners purified
T2 construct: mouse SPIN1 (Q61142), amino acids 49–262; The SPIN1 construct was cleaved with GST–3C protease overnight; also called recombinant SPIN1; source: E. coli BL21 (DE3), purified (His-tag column, 3C cleavage, ion exchange, SEC)
T2 sequence (Q61142 49-262): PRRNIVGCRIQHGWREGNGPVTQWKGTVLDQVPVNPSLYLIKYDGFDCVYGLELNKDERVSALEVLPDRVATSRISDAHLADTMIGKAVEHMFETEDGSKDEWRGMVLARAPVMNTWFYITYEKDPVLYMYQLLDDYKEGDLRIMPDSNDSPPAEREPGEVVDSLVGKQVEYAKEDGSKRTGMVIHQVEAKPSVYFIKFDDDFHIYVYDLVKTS

T1 sequence (Q61142 49-262): as above

B1: His-tagged SPOCD1 fragment 1b (domain or fragment, mouse, UniProt B1ASB6 203-409, looked up)
chain: VTQEPLQSPALYPEVLTEDSTDQQEVQPAFVVGSPGTPPDPVGPEDKAQSGSRMELEQGLSAPANSCASSPEPLGGLDGAPLEQRRPTHVKKRPWTSPDDSSQDHAEGASKKDFPRLEARVPRGVKTVYYVYTGSGIRLVGAASSSQPGQIEPLEELDTNSARRKRRPTTAHPTPCQSDPSETENAEPHQQRAEDPGEQGMTPLDAG
notes: source: E. coli BL21 (DE3), purified
- binding result [1]: binds

B2: mouse GST–SPOCD1-F1b (amino acids 203–409), recombinant (domain or fragment, UniProt B1ASB6 203-409, looked up)
chain: B1 chain
notes: pET-based backbone; also called GST–F1b; SPOCD1 fragment 1b; source: E. coli BL21 (DE3), purified (glutathione sepharose, dialysis)
- binding result [2]: binds

Source: PMC11499256, “Two-factor authentication underpins the precision of the piRNA pathway” (Nature, 2024)
